Data: the nanobody polyreactivity screen of Harvey et al. (2022)

Experiment: yeast display, Sf9 membrane polyspecificity reagent, FACS + sequencing; frameworks hold sequencing errors
Procedure, shortened: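 Genes from sorted yeast were amplified by colony PCR, read by MiSeq 2 × 250 sequencing and filtered on CDR length. These cells carried a synthetic nanobody library in Saccharomyces cerevisiae BJ5465 and were sorted by FACS into low and high (top ~1%) gates on anti-HA and streptavidin fluorescence. Polyreactivity is labelled according to the gate of origin.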

Sequence	polyreactivity (PSR sort gate)
QVQRVESGGGLFQAGGRLRLSCAATGSIFTPNAMGWYRQAPGKERELVAAISSSSDRTYYADSVKGRFTISRDKAKNTVYLQMNSLKPEDTAVYYCAAYAQKRYYWGQGTQVTVSS	high polyreactivity
QVQLVESGGGLVQAGGSLRLSCAASGFTFDDNAMGWYRQAPGKERELVATISYSDGNTYYADSVKGRFTISRDNAKNTVYLQMNSLKPEDTAVYYCAADEWAVYYIGLDYDYWGQGTQVTVSS	low polyreactivity
QVQLVESGGGLVQEGGSLRLICAASGRTFGTNAMGWYRQAPAKERELVAGINYSDGSTYYADSVKGRFTITRDNAKNTVYLQMNSMKPEDTAVYYCAADPGWAWWELNYWGQGTQVTVSS	low polyreactivity
QVQIVESGGGLVQAGGSLRLICAASGRIFYRYAMGWYRQAPGKERELVAAISSGSSTNYADSVKGRFTISRDNAKNTVYLQMNSLKPEDTAVYYCNAERYGKSWRYCYWGQGTQVTVSS	high polyreactivity
QVQLVESVGGLVQAGGSLRLSCTATGSNFGYNAMGSYRQAPGKEREFVAAISWRGGSTYYADSVKGRLTISRDYAKNTVYLQMNSLKPEDTAVYYCAAVPQGSKRGYYYWGQGTQVTVSS	high polyreactivity
QVQLVESGGGLVQAGGSLRLSCAASGGIFPFYAMGWYRQAPGKERELVAAISGIGDSTYYADSVKGRFTISRDNAKNTVYLQMNSLKPEDTAVYYCAREFSDGLSGKFDYWGQGTQVTVSS	low polyreactivity
QVQLVESGGGLVQAGGTLRLSCAASGSTFVGYAMGWYRQAPGKERELVAAISSSGSTNYADSVKGRFTISRDNAKNTVYLQMNSLKPEDTAVYYCAALYSYFWLIIDYGYWGQGTQVTVSS	low polyreactivity
QDQLVESGGGLVQAGGSLRLSCAASGFNFSPNAMGWYRQAPGKERELVAAIDWSGDRTYYADSVKGRFTISRDNAKNTVYLEMNSLKPEDTSVYYCNVVRRSTGEYSFYYWGQGTQVTVSS	low polyreactivity
QVQLVESGGGLVQAGGSLRLSCDASGSIFRGYAMGWYRQAPGKEREFVAAISKRSGSTYYADSVKGRFTISRDNAKNSVYLQMNSLKPEDTAVYYCAKERVAAAGGYWGQGTQVTVSS	high polyreactivity
QVQLVESAGGIVQAGGSLRLSCAASESIFETYDMGCYRQAPGTERELVAAITLSGGSTYYADSVKGRFTISRDNAKNTVYLQMNSLKPEDTAVYYCAADDSGVKVWEGDYWGQGTQVTVSS	low polyreactivity
QVQLVESGGGLVQAGGSLRLSCAASGRTFGINAMGWYRQAPGKERELVAVISFGEGGTYYADSVKGRFTISRDNAKNTVYLQMNSLKPEDTAVYYCATDYQSTSVWGGHFVINPYDYWGLGTQVTVSS	low polyreactivity
QVQLVESGGGLVQAGGSLRLSCAASGFIFYRYTMGWYRPAPGKERELVASITWSDGSTSYADSVNGRFTISRDNAKNTVYLQMNSLKPEDTAVYYCAADVSYQVIYEYDYSGQGTQVTVSS	low polyreactivity
QVQLVESGGGLVQAGGSLRLSCAASGSTFTHYAMGWYRQAPGKERELVAAISWGGGTTRYADSVKGRFTISRDNAKNTVYLQMNSLKPEDTAVYYCAAYRTHGPPRAIRFDYWGQGTQVTVSS	high polyreactivity
QVQLVESGGGLVQAGGSLRLSCAASGSIFLTNAMGRYRQAPGKERELVAAIRSGGSTSYADSVKGRLTISRDNAKNTVYLQMNSLKPEDTAVYDCNAESDSRNYKVHPSGIYEYWGQGTQVTVSS	low polyreactivity
QVQLVESGGGLVQAGGSLRLSCAASGRTLYGYAMGWYRQAPGKERELVAAISESDGSTYADSVKGRFTISRDNAKNTVYLQMNSLKPEDTAVYYCAADYYWYALQDGYYTYGYTYDYWGQGTQVTVSS	low polyreactivity
QVQLVESGGGLVQAGGSLRLSCAASGRIFRSYAMGGYRQAPGKERELVAAMTSGGSTNYADSVKGRFTISRDNAKNTVYLQMNSLKPEDTAVYYCNADRWKSGYWRYDYWGQGTQVTVSS	low polyreactivity
QVQLVESGGGLVQAGGSLRLSCAASGIIFDEYAMGWYRQAPGKERELVAVIDWSGGSTYYADSVKGRFTISRDNAKKTVYLQMNSLKPEVTAVYYCAAEDDSSTPEFDYWGQGTQVTVSS	low polyreactivity
QVQLVESGGGLVQAGGSLRLSCAASGSIFYFNAMGWYRQAPGKDRELVAAITYNGGSTRYADSVKGRFTISRDNAKNTVYLQMNSLKPEDTAVYYCAARAKYGPEDGYWGQGTQVTVSS	high polyreactivity
QVQIVESGGGLVQAGGSLRLSCAASGSTFQCYAMGWYRQAPGKERQLVAAINKSGGTTYYADSVKGRFTISRDNAKNTVYLQMNSLNPEDTAVYSCATDNPVVYQPCNMDYWGQGTQVTVSS	low polyreactivity
QVQLVESGGGLVQAGGSLRLSCAASGFIFGHYVMGWYRQAPGKERELVAAISVGGGRTYYADSVKGRFTISRDNAKNTVYLQMNSLKPEDTAVYYCRSYGYDYWGQGTQVTVSS	high polyreactivity
QVQLVESGGGLVQAGGSLRLSCAASGNIRYYAMGWYRQAPGKERELVAAITRRSGNTYYADSVKGRFTISRDNAKNTVYLQMNSLKPEDTAVYYCAVVLYTYLTPYYEMDYWGQGTQVTVSS	high polyreactivity
QVQLVESGGGLVQAGGSLRLSCAASGGIFRYYAMGWYRQAPGKERELVAAISRSGDSTYYADSVKGRFTISRDNAKNTVYLQMNSLKPEDTAVYYCAATRLYWKIFYGDGDYWGQGTQVTVSS	high polyreactivity

Sequence	polyreactivity (PSR sort gate)
QVQLVESGGGLVQAGGSLRLSCAASGFIFYDYDMGWYRQAPGKERELVAAITYSGGSTYYADSVKGRFTISRDNAKNTVYLQMNSLKPEDTAVYYCAAVKSRYAEAVDYYYWGQGTQVTVSS	low polyreactivity
QVQLVESGGGLVQAGGSLRLSCAASGFIYNAMGWYRQAPGKERELVAAISYSGGSTYYADSVKGRFTISRDNAKNTVYLQMNILKPEDTAVYYCAAGYYPFNYWGQGTQVTVSS	high polyreactivity
QVQLVESGGGLVQAGGSLRLTCAASGITFKYYAMGWYRQAPGKERELVAAIRGSGGGTNYADSVKGRFTISRDNAMNTVYLQMNSLKQEDSAVYYCAAANWRRNDYRYRFDYWGQGTQVTVSS	high polyreactivity
QVQLVESVGGLVQAGGSRRLTSAASGRTFREYAMGWYRQAPWKERELVAAISDSGDSTYYADSVKGRFTISRDNAKNTVYLQMNSLKPEDTAVYYCAADYYDYEYDYWGQGTQVTVSS	low polyreactivity
QVQLVESGGGLVQAGGSLRLSCAASGFIFYKYAMGWYRQAPGKERELVAAISRRGGNTYYADSVKGRFTISRDNAKNTVYLQMNSLKPEDTAVYYCIAVLYFPYEYWGQGTQVTVSS	high polyreactivity
QVQLVESGGGLVQAGGSLRLSCAASGFIFRYYAMGWYRQAPGKERELFAAISWSGGTTYYADSVKGRFTISRDNAKNTVYLQMNSLKPEDTAVYYCNAGYNGKRRDPVDYWGQGTQVTVSS	low polyreactivity
QVQLVESGGGLVQAGGTLRLSCAASGRIFDGNTMGWDRQAPGKERELVAAIRSRGDRTYYADSVKGRFTISRDNAKNTVYLQMNSLKPEDTAVYYCAAQPSWYKPKGSWFEKGLYDYWGQGTQVTVSS	low polyreactivity
QVQLVETGGGLVQARGSLRLSCAASGRTLPDNAMGWSRQAPGNESELVAAITTSGGSTYYADSVMGRFTISRDNAQNTVYLQLNSLKPEDTAVYYCAADIWQYSLIANYHPYDYWGQGTQVTVSS	low polyreactivity
QVQLVESGGGIVQAGGSLRLSCAASGRIIRYYTMGWYRQAPGKERELVAAIRQRGGSTYYADSVKGRFTISRDNAKNTVYLHMNSLKREDTAVYYCNAVRRTTYDYWGQGTQVTVSS	high polyreactivity
QVQLVESGGGLVQAGGSLRLSCAASGFFFAGYAMGWYRQAPGKERELVAAISSGGGSTYYADSVKGRFTISRDNAKNTVYLQMNSLKPEDTAVYYCAARRLYPPGYYYWGQGTQVTVSS	high polyreactivity
QVQLVESGGGLVQAGGSLRLSCAASGSTFYTNAMGWYRQAPGKEREMVASITGGGSTYYADSVKGRFTISRDNAKNTVYLQMNSLKPEDTAVYYCDADNVGGGWEFDSWGQGTQVTVSS	low polyreactivity
QVQLVESCGGLVQAGGSLRLSCAASGLIFWKYAMGWYRQAPGKERELVAAITSGGSTNYADSVKGRFTISRDNAKNTVYLQMNSLKPEDTAVYYCNARSWFEYYWGQGTQVTVSS	high polyreactivity
QVQLVESGGGLVQAGASLRLSCAASGRIFYLNVMGWYIQAPGKERELVAAISSSDDSTYYADSVKGRFTISRHYAKNTVYLQMNSLKPEDTAVYYCAAGYHQVQNYGDAYYWSELYSWGLGTQVTVSS	low polyreactivity
QVQLVESGGGLVQAGGSLRLSCAASGSTFAYNAMGWYRQAPGKERELVASISWTGGSTYYADSVKGRFTISRDNAKNTVYLQMNSLKPEDTAVYYCAVDWLEGYEFDSWGQGTQVTVSS	low polyreactivity
QVQLVESGGGLVQAGGSLRLSCAASGSIFGRYAMGWYRQAPGKERELVAAISRTGVSTYYADSVKGRFTISRDNAKNTVYLQMNSLKPEDTAVYYCNAVRLSWQNTYYYWGQGTQVTVSS	high polyreactivity
QVQLVESGGGLVQAGGSLRLSCAASGSTFYINAMGWYRQAPGKERELVAAISWSGGSTYYADSVKGRFTISRDNAKNTVYLQMNSMKPEDTAVYYCAADWYLGWSLDYDYWGQGTQVTVSS	low polyreactivity
QVQLVESGGGLVQAGGSLRLSCSASGSTFSRYAMGWYRQAPGKEREFVAAISQRGGSTYYADSVKGRFTISRDNAKNTVYLQMNSLKPEDTAVYYCAARRVPQLDDYWGQGTQVTVSS	high polyreactivity
QVQLVESGGGLVQAGGSLRLSCAASGRIFSSYAMGWYRQAPGKEREFVASITWRGGSTYYADSVKGRFTISRDNAKNTVYLQMNSLKPEDTAVYYCAADFYWKTYGYRTHEYDYWGQGTQVTVSS	high polyreactivity
QVQLVESGGGLVQAGGSLRLSCAASGRTLNWYAMGWYRQAPGKERELVAVINLSGGRTYYADSVKGRFTISRDNAKNTVYLQMNSLKPEDTAVYYCNAPSVWERSYEKYDYWGQATQVTVSS	low polyreactivity
QDQLVESWGALVQAGGRLRLICAASGTIFSRNTMRSYRQAPGKDRELVAGISSSGSRTYYADSVKGRFTISRDNAKNTVYLQMNSLKPEDNAVYYCAAEHQRSRGRRYYIGYDYWGQGTQVTVSS	low polyreactivity
QVQLVESGGGIVQAGGSLRLSCAASGGTFHYYAMGWYRQAPGKERELVAAINRSGDSTYYADSVKGRFTISRDNSKNTVYLQMNSLKPEDTAVYYCAVSYYGADGNPFPHDYWGQGTQVTVSS	low polyreactivity
